A short description of this data set: soluble fraction after stress (log2 fold change); higher = more stays soluble; pooled small domains, quantitative proteomics. The conditions noted are these: stress: 50 degC. In a few lines: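 The stress applied to every library was 50°C. These custom libraries of small protein domains were pooled and measured at high throughput with quantitative proteomics as the read-out. Aggregation propensity is expressed as the base-two logarithm of the fold change in how much of each protein remains soluble. The higher the value, the more of that protein stays in solution.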
In the case of “HMKILALETSAKAVSAAVSENGRILASGYQDTGLTHSRTLMPIVEHILKNTDLKLSDMDAIAVAVGPG”, the “soluble fraction (log2)” value was found to be 0.211.

Turning to “HMSPIQLKYNEYLIYIDEGKINTAEIHGNKITGKLKEGSEYVVTIYPELIASITEKLAENNVQTQLIQ”, the “soluble fraction (log2)” value is -0.0206. In the case of “HMTGIELLSHREHQVYDLLTQGRTVTEIGAQLNLAPNTVSTYRARILEKTGTKNDVELALYAQRH”, the “soluble fraction (log2)” value was -0.209. With “HMQTKEVDYGTFMSMIDEKNIGTVEIGDSQIVFTDKDNKNLYETGVMNDPDLAQRLHDAGATFSS”, the “soluble fraction (log2)” value is 0.201. “HMDFTMSEIQTAMAALPRGYRTVVQLYLVDGYSHKEIAEMLGVDVNTSKSQLSRGRKQLQAFLAAMS”: the “soluble fraction (log2)” value was -0.674. With “HMLFQQPATMIGKIGVAMSDLRPSGKIKIDDEWYDGQSEGDYILKGQEIIVVQVMNAYLIVRL” the figure was 0.126. With “HMLPDAESFSYEVPYTKGDGGTYNYEGKIKAQNADAARDEIIRQAQVYFQMNPQFTPDYPSTTITSLD” the figure was 0.171; with “HMKNYYEVLGVPRDAAAPDIKRAFRKLAKQFHPDHNPGDAKAEERFKLVSQAYDVLGDEEKRKLYDQFGE”, 0.173.

As to “HMATLTPLGRLQLARYHAQERATLAATAERFQVSTTTVRRWVGRYHQVVAAGGRPTTADMQDRPSRP”, the “soluble fraction (log2)” value is -2. The figure for “HMVTLPLLKRGHTGLPVKALQTLLVLRGMSVDVDGSFGEKTESAVRTFQTAAKILSDGEVGKDTWKALI” is -1.43; for “HMFNDPTMEDALVNLKGITNEVLSYLSSSKIKKLEELAEMSVPELKDIVENISDDEASALIMEARKPWF” it is -0.113; for “HMKVDLSEEEKTILELLKKESPQELETIKAASTLSNKKWDKAIKGLRKHNLAKVNKTDDGLFVELE” it is 0.257. The figure for “HMAEPLEIGDTVRIIDGFYGGEIGVISELVNPDAKNAEFEQVRVRLDQDTELALPIHNVERVRL” is 0.25; for “HMFDVNSMIAANIVAILKKQNRKQIDLAGALQTNKQTISKMLNGSRMINAIELKRIAEFLGVKMEELTKL” it is -0.635. The figure for “HMTFAEADAQYEVIKQQYLAGALDEEQFDEQLHRLMVLDDGGLWWAKSRENGSWHYYDPDREDWIAATP” is -0.355; for “HMPSREDFAYDSIKEAILSGELLPNQKISLSDLANKLGISIIPVNSAVGRLVAEGLVRQDPHHSPYVV” it is 0.345.

As to “HMVTEKPLYRDELMDHDTVWVEPISMDSHLRMELRGWYHVKNRFVENEVGQRFYFDFYDIKWLAFTNGP”, the “soluble fraction (log2)” value is -2.08.

With “HMTPILTAQQVVAALQAAGYRNVHDLEFEHGRWEADAVNAAGQRVELHINPYTGAIERERLD”, the “soluble fraction (log2)” value is at least 0.62. In the case of “HMGTHPGIDSGIISDILALKKELPTRSAAKIITMLTLAGKMEENSIHVKTVNRILYQYGYTRDTLS”, the “soluble fraction (log2)” value is -1.88. For the sequence “HMGIDSSVYVEARYELGHLYLKQKKYAAAYASFKEILDMYASTTPGVLPGAYNKLAEIGMKRIPKNKL”, the “soluble fraction (log2)” value was -2.74. The figure for “HMTAQLSITLNGETRRAAAGSIADLVRSLELDPAKVAVERNGLIVPRSTLAEVALGDGDVLEIVHFV” is -0.186; for “HMEEKVEVPNLSGKTYQQAKALLESYGLVAAKGGEEESEEPVGKVSRWSSAGKSVKKGTTITVWISGGI” it is -0.0709; for “HMEQVKFFDAKVITTPPNRLKTRYTPAGNLRPEADWLQSGAIVPVYETSGAGWYRIGYQTWASAEWMQRLD” it is -0.934. With “HMRQYKEMPYRLFLIHLGKGLVDEVELSDKAKLTGKLKNGKIFITDNPRTENFKEQLLLHDVKVKEG” the figure was 0.12; with “HMTNELVNVNKLLDVMEPSIPLTALEIMTRLGIKSKETLRNSYLNPAIKLGMINLTSPLKPTSKNQMYYK”, -0.307; with “HMKTKTAPPDSIPPAWLKESATLRPDLNQAQIKASAEVFLDHHRAKGTTLADWRPAWRNWIRRERA”, 0.116.

Regarding “HMIMGTIEKRGPFSFRIGVQVRLPDGSWEWIRDTIHVSPDLSARAARKQAEMALARLEADVYEGKRKPD”, the “soluble fraction (log2)” value is -0.878.

Consider “HMFEQFEVENLQELQQEWGDKFNHNLEMARRAFMNFATPEAVKVLEETGMGNHPELLKVFARIGEVLAED”, for which the “soluble fraction (log2)” value was -0.536. With “HMRTRSDVKRAAIIQAAKDAFQEYGVNATSMDKLAEMASVSKRTVYNHFSAKEELVMHIVKE” the figure was 0.166; with “HMIPLKTEAIPVSYGDGAAIIRSLAVAFPSRTFHWDAQTRRIIGQALDEEWQVIRSLVWQLDIP”, -0.584.

As for “HMGGEIGSGKNGYVAFYKGKKVDVKADSMYGAQKTAAKYFNAKKEYDVNVVLAEVDGKQYVQS”, the “soluble fraction (log2)” value amounted to 0.343. “HMAAGLTPKQKAFADNYIKNGGNAAEAARAAGYSLKNVGANAGKLLKNPKIAAYIAEKQAELDRRNGT”: the “soluble fraction (log2)” value came out at 0.155. Consider “HMASRKTERINRLIDVLQHATSRVPASVLSKILGIGERSVRNYVSEVNEQGQFRIDSSSGGYRLVA”, for which the “soluble fraction (log2)” value is -0.147. As to “HMKIEEVIEKLKTDSIISRKEYEDIVRQINPNLSDRTIFWQLAKLQDMGVLQKIGQNSFHVRN”, the “soluble fraction (log2)” value is -0.26. On to “HMNSEPKTKLQEIAQERGLAAPVYETTHTGPDHDRIFSASVTVGDVVAAGEARSRKGAESEAAIAAIKALG”, for which the “soluble fraction (log2)” value is 0.212. With “HMSHFSERLKSLRQQSSITQAKLADDLNVTKSLISMYESGQRLPSFEMLETIADYFNVPLSSLV” the figure was -0.089; with “HMKQLQIPYSFAKRHGVLLRYEGDQAFIVRRDNTSMLALQEARRLLGHPAHYLLYSEQEFNQLLSASFA”, -2.7.

Consider “HMNNGYSINEIAKLMKMTLKVVRRYVASGELKTTKTNNTYSISEEAFNEFKKYIEEGGDAKHAQEVADTFK”, for which the “soluble fraction (log2)” value was -0.229.

Turning to “HMLLRSEDAIELGKSQLEDALAPYKIETLDTGTVQQLLDSLKLNSLESLYQEIGLGNRMSTIIAHRLLGE”, the “soluble fraction (log2)” value is -0.156.

On to “HMKPSTETLYATARINVRAAADTSAEKLGSIEMGEAVVRTGTDGDWSIIEYNGSTGYVKSEYLTANAGDAT”, for which the “soluble fraction (log2)” value was -0.0962. The figure for “HMGRQTITLPDFSGQDLEQVKARLTEWGLVPEEKSVFSDSVPLGSVVRTVPAEGDEVSVGDTVTVYKSLGR” is 0.0656. With “HMTNSTGWSKSGGTQVTIREGETIYNLSRRYGVPAKSIMEANGIADATAVRAGQRISIPTYSY”, the “soluble fraction (log2)” value was found to be 0.0505. For “HMTEDQDWAIFKQKLKAQTEIDLDLYKEPQMKHRIKNLIQNAGFDSYVQYFDYVYLNQDRLAAFLENLTV”, the “soluble fraction (log2)” value worked out at 0.0704.

Regarding “HMDDTRLELTLLGKIHNDEEINKQSHINVNIKNGVILLTGESPRREITERILTLARTFEHTRQIVNQIAT”, the “soluble fraction (log2)” value was found to be 0.116. With “HMADQVVGQLGMVTQRIDNLQQTGRVSANGLDWAARSENGQPIPQGMPVEVLRIEGVKLIVRPVN” the figure was -0.0238; with “HMNLDVEQIKKEALNQLIEIGNENDGIVTIKDFKKIDDISSLDEDDIEDIRNLLIENNIEIFE”, 0.127; with “HMAKRQATIVYEGTNVRSGPSTSSAIVKRTGKGESYPIVSTKGDWYEIKLSNGDSAYVASWVVQTVD”, -0.328.

For “HMDRAIAAHLEARVRDALKQLSPEQTRVIELFFFDNKTHAEIENDLKIPLGTVKSRLRLALNKLRASL”, the “soluble fraction (log2)” value is -1.96. For the sequence “HMQPYTYNPNFLSDYRAYSLGIPLEAYDKLVQFRASGSFVNSMSDFQKITGVSDSLLAVLHSKFRYPK”, the “soluble fraction (log2)” value is -0.884. With “HMFSAASSQISSYVRSVVDKAQTYEQAYEILAKNPLGFKLDALEDELFRIIANAEILGADDDE”, the “soluble fraction (log2)” value was -0.887.
